Columns and labels:
[1] = target: human insulin receptor B-isoform (human) (UniProt P06213); assay: SPA competition; ratio of the hIR-B column to the hIR-A column
[2] = target: human insulin receptor A-isoform (human) (UniProt P06213); assay: SPA competition against [125I]A14Tyr-insulin, solubilized hIR-A, analogue in yeast supernatant
[3] = target: human insulin receptor B-isoform (human) (UniProt P06213); assay: SPA competition against [125I]A14Tyr-insulin, solubilized hIR-B, analogue in yeast supernatant

[A8H, B25H, B27E, desB30] human insulin (ligand)
Ratio B/A (relative hIR-B affinity over relative hIR-A affinity) [1]: 2.1 | relative affinity [% of HI] [2]: 67 % of HI | relative affinity [% of HI] [3]: 140 % of HI

Reference: patent US20110294729A1, “Novel Insulin Analogues” (Novo Nordisk A/S, priority 2008, published 2011)
